Measured values: patent US20190338028A1 (PROMAB BIOTECHNOLOGIES, published 2019)

Molecular target: T1, CD47 on human cancer cells and in human tumor and normal tissue samples (human, UniProt Q08722 19-323)
T1 construct: whole, on cells; also called CD47 antigen; CD47 tumor antigen
Test: IHC staining of tumor and normal tissue samples

B1: humanized CD47 ScFv fused in frame with C-terminal human Fc (scFv)
scFv: EVQLVESGGGLVQPGGSLRLSCAASGFTFSGYGMSWVRQAPGKGLEWVATITSGGTYTYYPDSVKGRFTISRDNAKNSLYLQMNSLRAEDTAVYYCARSLAGNAMDYWGQGTLVTVSSGGGGSGGGGSGGGGSEIVLTQSPATLSLSPGERATLSCRASQSISDYLHWYQQKPGQAPRLLIYFASQRATGIPARFSGSGSGTDFTLTISSLEPEDFAVYYCQQGHGFPRTFGGGTKVEIK
notes: also called humanized anti-CD47 scFv; not shown: C-terminal human Fc from pYD11 vector
binding result: binds
